The sequences below were run on Saccharomyces cerevisiae (assay: transcriptional activation domain activity (GFP:mCherry ratio, weighted mean of sorted bins, harmonized to initial dataset scale) (arbitrary fluorescence ratio units); higher = stronger transcriptional activation). Conditions: beta-estradiol 1 µM; induction time 4 h.
Procedure, shortened: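 The listed activation activity is a read-weighted mean of bin median fluorescence, averaged across barcodes and linearly mapped onto the initial dataset scale. Barcoded tiles, fused to an estradiol-inducible synthetic transcription factor, were integrated at URA3 in yeast diploids bearing a GFP reporter. Cells were held 4 hours at 30 °C in SC with 1 uM beta-estradiol, sorted into 8 GFP:mCherry bins, and sequenced, and tiles with fewer than 50 reads were excluded.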

Point of comparison: “ADEEDADEEDADEEDAGEKDAGEKDAGEEGAGEEDAGEEDASAIDAAACRMVQ”, “transcriptional activation domain activity” value 29800. Against it:
- IKPEEPVVAAAEEPATAPVVEETKPEEVAAEVAAEEDAAPVEEATPAEEVKPE — lower, 12400
- MISFPLFDPVVFNPFLFYDILSSFCSCFSFFFSLLFFPILQYPFLFFSCFFIA — higher, 60100
- MFYKLLIIYCFLFFRIYFLFHFFSYIYFFFFLFSISNFVISLPSNLFSHLLFF — higher, 47000
- GKISKDYHHVPSLASISSLQSSQSLDQNFSIPQSPPLSSMSFNFLTGNINETN — higher, 43600
- FFLALSFKDPFRWLYQFNMDPSLCTEKYLGSNLCVNQNLITLGFMLLLDLVLF — higher, 67300
- YIQDIQCLQFENGGVGRMELEAKHWMIYHGILLAKILRLLEDSPLKRFTIVNA — higher, 47800
- KGFDSQCIEEWDPILFSAAEIWPTKGKPIALVEMDPIDFDFDVDNWDYVTRHL — higher, 174000
- EREERRRQERAKEEAEGGNRRGKKNKGEAGGGKRGRGKRPRRGRRKGQRARGG — higher, 34400
- LQCLLLSVLSPIGLVLLYSHLIGTDLIVIVSQLMFDYQVVQSWFIIFVCLVYW — higher, 57400
- EKGEEGGSGGEGGEGRRGGQARGTGRRAGQEGKGPGKGEGGAARRRKEGEARK — higher, 54500
- QRNPGSRAVIVKPILHVYLEGAPGSLTTRNDSVVGLLVVQLSISLANALAMKA — lower, 22900
- TIITNRGTIPNGLGRDIWTLQPDMITSFAYWFYHMEYAYFLNLVLLKASILFF — higher, 57800
- MAEEQPAKPKKHRAAKPKVSTGCVTCKQRRIKCGEEKPHCMRCVKTGRECGGY — higher, 41800
- FRFQQCMTRAMTLIKMYFVGSLRALSLDVFKRLSEKDVSPTAQMHLLYTRFKT — higher, 56200
- LLFFFFFFLLLFFLLFLLLRSRPPSSFSPASIVWPLRAGFGIPLPLFLLFFLP — lower, 20800
- KAEPKKEAAKGPRNVSGVTVDDKKEGKGKAAKKGDRVEMRYIGKLKSGKVFDS — higher, 36900
- PSLLVLAAHTLAKHGVLAPMSTLITRFLELPFQIKRPQLYYNLLLHAISRFPS — higher, 70100
- NSSSNNNVSTVPSSMMHSSTLNGTSGLGGDNDDNMLALSLATLANSATASPRL — lower, 27900
- YILRLFRDYVFFQVDANGKRTFDLGHMMECLLRMDCGSDELICLTSSDEKNVI — higher, 49100
- YLINLLYQLLWLVPFSAPLSLRSTLAKVYEFGGVHSGSAICSVLWFILLTVFL — higher, 64900
- ARVQVNFWFFLFVYYGFYNLTALMWITKVFNLYSLNWWPSTMGFPLTITLIAI — higher, 55300
- PELVPLDLKNPELDSSFDLNMNLDLNLNLDSNFNIALNRSDSSGSTMNLDYKL — higher, 101000
- LCILVYLSHVSYLTLLPRFDYLYNIIFNMVIGLSHNALWLVYSLPISAFRRFP — higher, 75800
- VEANTSANLHFDNVIPTVTNADIRKKRSNWDNMMTSGPVEDFWTINDDYGFLT — higher, 141000
- EEESQAKKTTAAASSTKDLDPKGGTSGKEKKENEGTLTKRGKSGRRKVRKSVL — lower, 17800
- LPLYILSLLCCFFIIAMFWKVTIPFFLIFPSFFMLSCFHLYFSFSPSRWCILN — higher, 38600
- LVGALGPPGGLYSSSAGDTQERRRRREGERALKGFEVGDKWAGEVARRLRRTA — higher, 60100
- RGGGRADQGRRKSPARARSASASSQSSSRSRSASRDSDQSNRRSKATSPGGRG — higher, 32500
- QLVIAVLLLHASAMFTKRVEIPQLKLETAGKLFPCVFVNIVGLVFNTLCLRDV — higher, 43300
- EDENKSKEETQEKKTNEPELNENNKDIAKKGEEEEEEEEADKDNNKTKKKKKN — lower, 27500
- AEHVDLVGCPVHVMTRFWHLYLPAFTLHTVLYIFTLIRVLNCENSPQALLIRR — higher, 56600
- LLLESEPLFRCTLPTIRDNISAYLSFLQIPNGNATEELPQWMPYILLIFEILL — higher, 54400
- QLNLVNHFYQFSLHFFLDIFDYILHHNPNLKGVTDYPTRRAILLNDLFLVVYR — higher, 58200
- VRLLIRCTRRSLYFWACLCCSWGIILHSLFITLANFNVLQSYGSIVIIHLTWC — higher, 74300
- IPSHQFAFGRFMALSSTLGCKFFFSSFNSFFYIFFITLFFSLLLLPFFKNLFF — higher, 39300
- NEENIRREQDAADEIAQKLRDDIRSRTGCDVSVGIGSNILQAKVALRKGKPAG — higher, 35200
- MGYQPLFLCFVLSSPCLLLFPVLHILQPASSFSLLCLELFVRWVTYLLLLFSS — higher, 71800
- PYLFIIRLLRLYKLPLIFMTSPVYIKTLKMMQNALGIGQTVAVIFPLTFWFCI — lower, 27600
- MLFLFFFIHILHPFFFFFNPFFLFLSFFFISFCTSVCLCMRKQLTRIIFLNYI — higher, 50500
- NTTTPDAAEGDAEGEDSASASGSGSEGKGGEGEEKTGKKGKKGRKGKLLQRLK — lower, 29500
- KNASFNDADLLSSSYWIKAYNDHLFSVSESDETSPMNSELNDTKLIVPDFKST — higher, 69100
- LVLLFSLYPLLLPLLPLFPFLLSLFLPLPLNLPKIPAAFFFVFLNIYFLFSIL — lower, 27700
- IQEEVKAKKKRKSRKGAKEEGEASPAESSESDGEQEKPKKKASRKKKRPKVEG — lower, 27600
- IPGPILLCSLTALSCLTLFTLLVSIYWSVSSVCHLIFLTILWILRCLVTLLRF — higher, 34600
- AAEEEDEEAKPLPAKKKRSSKKRKAEDAAEPEEKPAAKKKTAKVSGRGKKAAD — lower, 16300
- GRRHCNYVQGWLWLSLFSYVCVTYVLSIYISMSFFFWNIAVFLFYFIFVGLLG — higher, 40500
- ERGTGGQGRRAEEEEAQGGDGGHKTKERGRDEEAGAGGGPAEAGAGAGAKGRT — lower, 28600
- AYTSTMFLQWHNHMVEFYHLRCMLGATLRNLDNENPGASLPVQLWLLFAWHML — higher, 42100
- PSHEYNKTLSALLILLESSAERCFKDLTLLRAAGVTLLGRLFLVFPVFFNPRH — higher, 57600
- LDIGHWMSSYNLLRRQSTKRYMIIMDLTRRFNTRTPNLLYLIQWGFVWGVSYY — higher, 57900
- HKLKHVLAEHGARMSIHLGRRQVTHVILGRPAGGGGGAGGGLAGGKLQKEIQK — higher, 42500
- KQYCVRPNSGRIEPGKEVEVQVLLQAMREDPPPDARCRDKFLVQSVAMTGENE — lower, 29400
- MNAVQASGLVISLVLYVAVVFILLAGPLLFFLCYFFFLISITFPVHLPPMRVS — higher, 63800
- TYINYLITSNAGLTATIVHMLLWNYAEVSLGWSWITIANMKKLLRPETYKFWQ — higher, 33300

— the supplement of paper PMC12636428
